From publication PMC7335187 (2020)

T1: Atg8 (1-116) K26P (S. cerevisiae, UniProt P38182 1-116, K26P)
T1 sequence: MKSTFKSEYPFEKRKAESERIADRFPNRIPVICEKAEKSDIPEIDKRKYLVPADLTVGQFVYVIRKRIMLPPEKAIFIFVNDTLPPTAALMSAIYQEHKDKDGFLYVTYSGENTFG


Each binder was assayed against GABARAP WT (human GABARAP 1-116) (human, UniProt O95166 1-116) (assay: ITC).
Sequence of GABARAP WT (human GABARAP 1-116) (O95166 1-116): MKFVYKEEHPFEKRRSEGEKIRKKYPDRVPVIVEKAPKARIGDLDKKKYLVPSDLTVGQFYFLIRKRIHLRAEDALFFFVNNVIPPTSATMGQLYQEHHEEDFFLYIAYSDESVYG

Binder	Kd [µM]
GPEEDTDTEEGDDFALLDQSALDQIESELY [FAM134B444-470 E456A E462A peptide]	3.39
GPEEDTDTEEGDDFELLDQSELDQIESELY [FAM134B444-470 WT peptide]	0.14
DDFELLDQY [FAM134B453-460 (Δhelix) peptide]	2.54
NDFEMITKY [SEC62361-368 (Δhelix) peptide]	3.38
GPHSSGNGNDFEMITKEELEQQTDY [SEC62355-376 WT peptide]	0.19

The binders below were run against T1, Atg8 (1-116) K26P (assay: ITC).

Binder	Kd [µM]
TSTEFPNDADFMEDILDET [Atg40 peptide Y242A]	32.7
EFPNDYDFAEDILDET [Atg40^237–252 M245A peptide]	21.7
TSTEAPNDYDFMEDILDET [Atg40 peptide F238A]	4.31
